Laboratory results as given in US5843749, “Ehk and Ror tyrosine kinases” (Regeneron Pharmaceuticals, Inc., dated 1998).

Key:
[1] = biological target: rat trkB (full-length, pCMX-trkB or pLTR-trkB) (rat, UniProt Q63604); assay: DSS cross-linking of 125I-NGF to COS cells transfected with pCMX-trkB
Procedure: COS-M5 cells were transiently transfected with either the pCMX-LNGFR, pCMX-trkB, or control vector (pCMX) by the DEAE-dextran transfection protocol. Briefly, COS-M5 cells were plated at a density of 1.5 ×10^6 cells per 100 mm plate 24 hours prior to transfection. For transfection, the cells were cultured in serum-free DMEM containing 400 μg/ml of DEAE-dextran, 1 μM chloroquine, 2 mM glutamine, 20 μg/ml insulin, 5 μg/ml transferrin, 33 nM sodium selenite, and 5 μg of the appropriate DNA for 3 hours and 15 minutes at 37° C. in an atmosphere of 5% CO2. The transfection media was aspirated and replaced with phosphate-buffered saline with 10% DMSO for 2 min. Following this DMSO "shock", the COS-M5 cells were placed into DMEM with 10% FBS, 1% each of penicillin and streptomycin, and 2 mM glutamine for 48 hours.
Cells were harvested in phosphate-buffered saline containing 1 mM EDTA, 1 mg/ml glucose and 25 mM HEPES (PBS-versene) and resuspended at an appropriate density (generally 1 ×10^6 cells per ml) in ice-cold binding buffer A (PBS containing 1 mg/ml each of BSA and glucose). pCMX-trkB or pCMX vector transfected COS-M5 cells (4 ×10^5 cells) were incubated on ice with ^125I-labeled neurotrophins (final concentration estimated to be between 0.1 and 0.25 nM) for 90 minutes in the absence or presence of unlabeled NGF, BDNF or NT-3 (see FIGS. 1 and 3). […]

[2] = biological target: human low affinity nerve growth factor receptor (LNGFR) (human, UniProt P08138); assay: competition of cross-linking, competitor 125I-NT-3, pCMX-LNGFR COS cells
[3] = biological target: rat trkB (full-length, pCMX-trkB or pLTR-trkB) (rat) (UniProt Q63604)

Row | Binder | binding result [1] | binding result [2] | dose-response survival assay of trkB-expressing NIH3T3 cells, concentration at which activity is obvious [3] | dose-response survival assay of trkB-expressing NIH3T3 cells, concentration at which effects are discernible [3] | dose-response survival assay of trkB-expressing NIH3T3 cells, effectiveness against BDNF [3]
1 | Murine 2.5S NGF (ligand, radioiodinated (125I, lactoperoxidase method) where used as the labeled ligand) SSTHPVFHMGEFSVCDSVSVWVGDKTTATDIKGKEVTVLAEVNINNSVFRQYFFETKCRASNPVESGCRGIDSKHWNSYCTTTHTFVKALTTDEKQAAWRFIRIDTACVCVLSRKATR | no binding |  |  |  | 
2 | brain derived neurotrophic factor (human BDNF, produced in CHO cells) (ligand, radioiodinated (125I, lactoperoxidase method) where used as the labeled ligand) HSDPARRGELSVCDSISEWVTAADKKTAVDMSGGTVTVLEKVPVSKGQLKQYFYETKCNPMGYTKEGCRGIDKRHWNSQCRTTQSYVRALTMDSKKRIGWRFIRIDTSCVCTLTIKRGR |  | binds | 0.5 to 5 pM |  | 
3 | neurotrophin-3 (human NT-3, produced in CHO cells) (ligand, radioiodinated (125I, lactoperoxidase method) where used as the labeled ligand) YAEHKSHRGEYSVCDSESLWVTDKSSAIDIRGHQVTVLGEIKTGNSPVKQYFYETRCKEARPVKNGCRGIDDKHWNSQCKTSQTYVRALTSENNKLVGWRWIRIDTSCVCALSRKIGRT |  | binds |  | 50 pM | < 10 fold
